Measured values: US8431396B2, “Anti-angiogenic peptides” (The Cleveland Clinic Foundation, priority 2003, dated 2013)

Columns and labels:
endothelial cells = experiment: DNA synthesis ([3H]thymidine uptake) of endothelial cells in response to VEGF165; format: cell-based; details: TIMP3 at 1 μg/ml and 10 μg/ml
Description: (A) Proliferative response of PAE-KDR cells to VEGF165 (5 ng/ml; left) and VEGF121 (30 ng/ml; right). […] (C) DNA synthesis of endothelial cells in response to VEGF165. […] [3H]thymidine incorporation was measured during the last 5 h of incubation. (D) Analysis of endothelial cell expressing TIMP3. […] Expression of TIMP3 protein was determined by immunoblotting with antibody against TIMP3 (top left). MMP-inhibitory activity was determined by reverse zymography (top right). Corresponding densito-metric quantitation is expressed as arbitrary optical density (OD) units±s.d. (C) DNA synthesis in adenovirus-infected cells in response to VEGF. […] In all proliferation experiments, total number of cells was counted at 48 h. Proliferating cell number is expressed as means±s.e.m. of quadruplicate samples. DNA synthesis data represent the means±s.e.m. of triplicate samples; similar results were obtained in at least 2 different experiments. *, P<0.01.
A modified Boyden chamber assay for migration and proliferation assays were carried out as described.

PDGFR-β = biological target: T1, PDGFR-β (Homo sapiens, UniProt P09619); experiment: PDGF-BB-induced PDGFR-β phosphorylation (immunoprecipitation/immunoblot); format: cell-based; details: 1 μg/ml; PAE-PDGFR-β cells
T1 construct: expressed in transfected cells; host or cells: porcine aortic endothelial (PAE) cells
Description: PDGF-BB-mediated phosphorylation was examined similarly in PAESPDGFR-β cells (anti-PDGFR-β; top right panel). […] PDGF-BB-mediated phosphorylation of PDGFR-β in PAE-PDGFR-β cells overexpressing TIMP3 (top right). KDR protein or PDGFR-β protein was analyzed by both immunoprecipitation and immunoblotting with antibodies specific for KDR (left) or for PDGFR-β (right; A and B, second panels from top). […] Total protein levels of ERK were determined by immunoblotting with antibodies specific for ERK1/2 (anti-ERK1/2; A and B, bottom).
Cell fractions, prepared as described earlier, or immunoprecipitates of the lysates with the indicated antibodies, were subjected to SDS-PAGE. Proteins were detected with horseradish peroxidase-conjugated antibodies specific for either rabbit or mouse IgG (Amersham Pharmacia, Piscataway, N.J.) followed by enhanced chemiluminescence.

PAEKDR cells [1] = experiment: Tube formation assay in type 1 collagen gels; format: cell-based, porcine; details: 50 ng/ml VEGF; three-dimensional collagen gels
Description: Type 1 collagen was mixed with 10×DMEM and 0.1 M NaOH (8:1:1), adjusted to a solution containing 10 μg/ml growth factor reduced matrigel matrix (BD, Biosciences), and then distributed in 48-well dishes. […] After 4 h of incubation at 37° C., a second layer of collagen was added, and cultures were kept under the same conditions as above described. Tube formation was examined using a phase-contrast microscopy at the indicated time points.

PAEKDR cells [2] = experiment: VEGF-stimulated actin reorganization / membrane ruffles; format: cell-based, porcine; details: 50 ng/ml VEGF for 15 min
Description: For immunostaining, subconfluent cells cultured on Falcon cultureslides (BD, Biosciences) were used. For surface KDR detection, cells were fixed in 1% paraformaldehyde for 10 min at 4° C. Following blocking with 1% BSA cells were incubated with anti-extracellular VEGFR-2 monoclonal antibody for 1 h at room temperature. Surface KDR was detected with biotinylated anti-mouse […] (1:1000) and Texas Red avidin D (1:1500) using standard procedures. […] The cells were fixed with 3.7% paraformaldehyde in PBS for 30 min at 4° C. and permeabilized with 0.2 Triton X-100 for 20 min at room temperature. Following rinsing with PBS the cells were incubated with fluorescein isothiocyanate (FITC)-labeled phalloidin in PBS (0.66 μg/ml, Sigma) for 20 min at room temperature washed with PBS and analyzed by fluorescence microscopy.

soluble FLT1-IgG = biological target: T2, soluble FLT1-IgG (Homo sapiens, UniProt P17948); experiment: Solid-phase binding of [125I]VEGF165 to soluble FLT1-IgG; details: similar doses as for KDR-IgG
T2 construct: purchased R&D Systems
Description: (B) Expression of KDR in the lysate and plasma membrane (PM) of PAE-KDR and PAE-KDR-TIMP3 was analyzed by immunoprecipitation (Ip) and western blot (Ib) analysis with antibody specific for KDR. […] Values are the mean±s.e.m. of triplicate wells.
Soluble KDR-Fc or FLT1-Fc (50 ng) was added to each well. […] After washing, the bound protein was solubilized with 1% SDS and 1 M NaOH and radioactivity measured in a γ-counter.

MMPs = experiment: Reverse zymography of ECM and CM of transfected PAEKDR cells; format: biochemical; details: PAEKDR cells expressing WT or mutant TIMP3
Description: Conditioned medium, cell lysates and ECM fractions from transfected cells were prepared as described previously (Qi et al., 2002). Equal amounts of protein were loaded onto a 12% gel with 1 mg/ml gelatin plus RPE cell-conditioned media, as a source of MMPs, for reverse zymography and processed as described previously (Pavloff et al., 1992).

T2 sequence (P17948 27-758 limits assumed): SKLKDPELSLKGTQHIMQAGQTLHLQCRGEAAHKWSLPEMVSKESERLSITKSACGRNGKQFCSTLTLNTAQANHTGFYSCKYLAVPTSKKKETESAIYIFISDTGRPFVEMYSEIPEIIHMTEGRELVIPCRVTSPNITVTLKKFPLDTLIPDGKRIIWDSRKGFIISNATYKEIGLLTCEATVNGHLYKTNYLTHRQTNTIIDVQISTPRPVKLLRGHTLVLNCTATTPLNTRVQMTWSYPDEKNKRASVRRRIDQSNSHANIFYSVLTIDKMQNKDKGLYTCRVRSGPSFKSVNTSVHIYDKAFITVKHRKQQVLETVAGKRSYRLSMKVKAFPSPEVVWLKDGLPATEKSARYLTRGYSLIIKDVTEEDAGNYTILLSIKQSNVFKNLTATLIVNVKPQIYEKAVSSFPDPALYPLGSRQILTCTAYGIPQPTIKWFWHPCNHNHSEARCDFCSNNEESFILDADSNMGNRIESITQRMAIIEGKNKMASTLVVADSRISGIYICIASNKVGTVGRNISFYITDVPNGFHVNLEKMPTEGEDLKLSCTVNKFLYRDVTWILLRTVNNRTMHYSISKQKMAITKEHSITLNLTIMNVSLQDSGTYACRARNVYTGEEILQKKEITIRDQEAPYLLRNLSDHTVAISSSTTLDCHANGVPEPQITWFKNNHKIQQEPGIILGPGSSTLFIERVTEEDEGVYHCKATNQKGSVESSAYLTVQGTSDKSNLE
T1 sequence (P09619 33-1106, species assumed): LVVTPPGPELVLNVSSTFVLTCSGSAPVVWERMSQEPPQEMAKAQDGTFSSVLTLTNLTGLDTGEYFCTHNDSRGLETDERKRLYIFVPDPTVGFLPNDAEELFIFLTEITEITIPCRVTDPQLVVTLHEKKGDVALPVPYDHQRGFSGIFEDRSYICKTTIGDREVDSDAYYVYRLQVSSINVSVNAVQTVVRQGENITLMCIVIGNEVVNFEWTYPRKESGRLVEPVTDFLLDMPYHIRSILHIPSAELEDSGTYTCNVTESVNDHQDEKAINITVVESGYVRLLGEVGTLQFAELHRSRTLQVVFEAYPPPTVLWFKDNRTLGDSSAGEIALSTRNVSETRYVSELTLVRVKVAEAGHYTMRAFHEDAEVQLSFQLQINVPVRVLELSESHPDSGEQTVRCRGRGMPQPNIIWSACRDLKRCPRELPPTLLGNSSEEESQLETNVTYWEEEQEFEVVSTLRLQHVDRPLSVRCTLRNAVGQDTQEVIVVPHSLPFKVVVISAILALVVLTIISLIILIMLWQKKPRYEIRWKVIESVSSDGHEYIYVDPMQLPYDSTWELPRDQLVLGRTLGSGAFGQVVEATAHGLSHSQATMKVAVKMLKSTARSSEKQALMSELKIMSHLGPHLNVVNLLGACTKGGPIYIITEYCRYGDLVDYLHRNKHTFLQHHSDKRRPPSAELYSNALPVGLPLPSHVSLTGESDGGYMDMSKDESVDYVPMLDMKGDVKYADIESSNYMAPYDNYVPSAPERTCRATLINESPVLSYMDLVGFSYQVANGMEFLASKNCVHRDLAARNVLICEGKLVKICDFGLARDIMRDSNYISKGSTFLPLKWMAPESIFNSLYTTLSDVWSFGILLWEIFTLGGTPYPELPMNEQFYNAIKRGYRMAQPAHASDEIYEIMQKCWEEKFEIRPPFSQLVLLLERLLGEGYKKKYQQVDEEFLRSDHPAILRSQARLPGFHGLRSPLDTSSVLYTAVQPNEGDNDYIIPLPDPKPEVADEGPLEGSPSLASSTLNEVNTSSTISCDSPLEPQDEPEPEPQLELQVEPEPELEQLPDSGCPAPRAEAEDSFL

B1: TIMP3: tissue inhibitor of metalloproteinases-3; recombinant human form expressed in NSO myeloma cells, or wild-type expressed in transfected cells (protein, listed as Homo sapiens)
chain: MTPWLGLIVLLGSWSLGDWGAEACTCSPSHPQDAFCNSDIVIRAKVVGKKLVKEGPFGTLVYTIKQMKMYRGFTKMPHVQYIHTEASESLCGLKLEVNKYQYLLTGRVYDGKMYTGLCNFVERWDQLTLSQRKGLNYRYHLGCNCKIKSCYYLPCFVTSKNECLWTDMLSNFGYPGYQSKHYACIRQKGGYCSWYRGWAPPDKSIINATDP
inhibition of DNA synthesis in response to VEGF165 ([3H]thymidine uptake) (endothelial cells): could also inhibit DNA synthesis
effect on phosphorylation of PDGFR-β stimulated with PDGF-BB (PDGFR-β): did not affect
VEGF-stimulated tube formation (PAEKDR cells [1]): severely compromised
VEGF-stimulated formation of membrane ruffles (PAEKDR cells [2]): did not form membrane ruffles
inhibition of [125I]VEGF binding to soluble FLT1-IgG (soluble FLT1-IgG): could not inhibit
MMP inhibitory activity in ECM and CM (reverse zymography) (MMPs): marked MMP inhibitory species
